# Data reported in patent US9969998B2, “Compositions of adenosine deaminase-2 (ADA2), variants thereof and methods of using same” (Halozyme, Inc., priority 2014, dated 2018).
# Residue numbers refer to the chain shown, from its start. In names and notes the source's numbering stands.
# B1: S265N/K374E: ADA2 combination variant SEQ ID NO:60 (protein)
# chain: IDETRAHLLLKEKMMRLGGRLVLNTKEELANERLMTLKIAEMKEAMRTLIFPPSMHFFQAKHLIERSQVFNILRMMPKGAALHLHDIGIVTMDWLVRNVTYRPHCHICFTPRGIMQFRFAHPTPRPSEKCSKWILLEDYRKRVQNVTEFDDSLLRNFTLVTQHPEVIYTNQNVVWSKFETIFFTISGLIHYAPVFRDYVFRSMQEFYEDNVLYMEIRARLLPVYELSGEHHDEEWSVKTYQEVAQKFVETHPEFIGIKIIYNDHRSKDVAVIAESIRMAMGLRIKFPTVVAGFDLVGHEDTGHSLHDYKEALMIPAKDGVKLPYFFHAGETDWQGTSIDRNILDALMLNTTRIGHGFALSKHPAVRTYSWEKDIPIEVCPISNQVLKLVSDLRNHPVATLMATGHPMVISSDDPAMFGAKGLSYDFYEVFMGIGGMKADLRTLKQLAMNSIKYSTLLESEKNTFMEIWKKRWDKFIADVATK
# modifications: human ADA2 S262N/K371E, mature numbering
# B2: S265N/R23E/K374E: ADA2 combination variant SEQ ID NO:63 (protein)
# chain: B1 chain with R20E
# modifications: human ADA2 S262N/R20E/K371E, mature numbering
# B3: S265N/R23E: ADA2 combination variant SEQ ID NO:61 (protein)
# chain: B1 chain with R20E, E371K
# modifications: human ADA2 S262N/R20E, mature numbering
# B4: S265N/K374D: ADA2 combination variant SEQ ID NO:59 (protein)
# chain: B1 chain with E371D
# modifications: human ADA2 S262N/K371D, mature numbering
# Test: Heparin binding ELISA (heparin coated microtiter plate)
# Conditions: single and S265N combination variants (Table 34)
# Method: A 96-well plate was coated with 100 μL of 200 μg/mL heparin sodium salt (Calibochem, EMD Milipore, Billerica, Mass.; Cat. No. 375095) in Na2CO3 buffer (pH 9.6), overnight at 4° C. The wells were blocked with 5% milk in PBS, and washed 6 times with PBS. 3 μM of select rHuADA2 variants (see Table 20), WT rHuADA2 (positive control) and WT rHuADA1 (negative control) were added to the wells individually and incubated for 2 hours at room temperature, followed by washing 6 times with PBS. 100 μL of 1:1000 diluted horseradish peroxidase (HRP)-anti-FLAG antibody (Abcam, Cambridge, UK; Cat. No. Ab1238) was added to the wells to detect binding and incubated at room temperature for 1 hour. The ELISA reactions were developed by adding the 3,3′,5,5′-Tetramethylbenzidine (TMB) substrate solution (Pierce, Thermo Fisher Scientific, Rockford, Ill.) according the manufacturer's instructions and reading the optical density at 450 nm (OD450) on a plate reader.
row,Molecule,Heparin Binding ELISA Average OD450
1,B1,0.6
2,B2,0.93
3,B3,1.03
4,B4,0.92

# Test: Thermal stability by differential scanning fluorimetry (DSF)
# Type: physicochemical
# Conditions: 0.1-1 mg/mL protein
# Method: The stability of the rHuADA2 WT and variants was measured by differential scanning fluorimetry (DSF) at increasing temperatures. DSF measures conformational stability, which correlates with thermal stability. The melting temperature (Tm) in DSF is defined as the midpoint of the protein unfolding transition.
# Non-PEGylated WT rHuADA2, non-PEGylated rHuADA2 variants, and PEGylated forms of WT rHuADA2 and rHuADA2 variants were prepared at concentrations of 0.1-1 mg/mL and mixed with the ROX™ protein thermal shift dye (Applied Biosystems, Carlsbad, Calif.; Cat. No. 4461146) to a final dye concentration that corresponds to a 125-fold dilution of the stock ROX™ solution. Protein samples were then loaded into 96-well plate at a volume of 20 μL/well in triplicate. A ViiA7 RT-PCR System (Applied Biosystems, Carlsbad, Calif.) was used to measure the shift in fluorescence as the temperature of the samples were increased. The reactions were subjected to the following steps: incubation at 25° C. for 2 min; ramping of temperature from 25 to 99° C. at a rate of 0.05° C. per second; followed by a 99° C. incubation for 2 min. The wavelengths used for emission and excitation were 623 nanometers (nm) and 580 nm, respectively.
row,Molecule,"Tm, melting temperature by DSF [°C]"
1,B1,61.3
2,B2,60.4
3,B3,59.6
4,B4,60.8

# Test: Kinetic assessment of adenosine deaminase activity (ammonia assay, Michaelis-Menten)
# Type: biochemical
# Conditions: pH 6.5; [E] = 8.5 nM
# In short: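 Coupled ammonia assay: rHuADA2 WT or variants (1 μg/mL, 17 nM in 2× mix) with adenosine 20 μM–20 mM, α-ketoglutarate, NADPH and GDH, at pH 7.6 or pH 6.5 (PIPES), room temperature. Michaelis-Menten fit gave Km, Vmax, kcat, kcat/Km.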
Molecule,Km [µM],Vmax [µM/min]
B1,1410,57.13
B2,1290,63.74
B3,1430,53.25
B4,1510,43.85

# Same assay, conditions: pH 6.5; [E] = 8.5 nM; kcat=Vmax/0.0085/60
row,Molecule,kcat [s⁻¹]
1,B1,112.02
2,B2,124.98
3,B3,104.41
4,B4,85.98

# Same assay, conditions: pH 7.6; [E] = 8.5 nM
Molecule,Km [µM],Vmax [µM/min]
B1,2540,87.44
B2,2870,82.38
B3,2900,63.13
B4,2860,78.29

# Same assay, conditions: pH 7.6; [E] = 8.5 nM; kcat=Vmax/0.0085/60
row,Molecule,kcat [s⁻¹]
1,B1,171.45
2,B2,161.53
3,B3,123.78
4,B4,153.51

# Same assay, conditions: pH 7.6 and pH 6.5
row,Molecule,kinetics properties compared to WT
1,B1,greatest improvements in catalytic activity at pH 6.5
2,B2,greatest improvements in catalytic activity at pH 6.5
3,B3,greatest improvements in catalytic activity at pH 6.5

# Test: Spectrophotometric adenosine deaminase assay at varying pH (pH optimum)
# Type: biochemical
# Conditions: pH 5.5
# Method: Adenosine deaminase activity of rHuADA2 and variants at varying pH were assessed to determine the pH optimum of each. The adenosine deaminase activity was determined spectrophotometrically by direct measurement of changes in adenosine absorbance. […] During the deamination reaction, the absorbance of ADO decreases while that of INO increases with time. Since the dynamic changes in absorbance make it difficult to monitor activity at a single wavelength, the relative ADO activity was determined as a ratio of the ADO peak to isobestic point (i.e. the wavelength where ADO and INO have the same extinction coefficient). The isobestic point, which is 253 nm, remains unchanged and is concentration independent, so that it is the reference point to correct for volume or intensity discrepancies.
# To construct the standard curve for ADO and INO, a series of solution mixtures in 0.001% Tween-20 containing different concentrations of ADO and INO were prepared. The total concentration of ADO and INO mix was 50 μM, in 1×PBS (10 mM phosphate, 137 mM NaCl, 2.7 mM KCl), pH 7.4. The samples were scanned with the wavelengths between 220 nm and 300 nm to determine the isosbestic point, where all spectra cross.
# For performing the spectrophotometric adenosine deaminase assay of ADA2 and variants, a 2× solution containing 10 mM ADO in 100 mM potassium phosphate buffer (KPB), 0.1% Tween-20 at different pHs (i.e. 5.5, 6, 6.5, 6.75, 7, 7.25, 7.4, 7.75 and 8) were prepared. A separate 2× solution containing 2 μg/mL WT rHuADA2 or variants were prepared in the same 100 mM potassium phosphate buffer (KPB), 0.1% Tween-20 at the respective pH (i.e. 5.5, 6, 6.5, 6.75, 7, 7.25, 7.4, 7.75 and 8). An equal volume of the ADO solution and the ADA2 solution (wildtype or variants) were mixed to initiate reaction. At each time point (i.e. 1, 3, 5, 7, 9, 11, 13 and 15 min), a small aliquot (4 μl) was removed and diluted 50 times by adding to 196 μl 1×PBS, pH 7.4. The diluted samples were further diluted 2 fold (in duplicates) by adding 85 μl samples to 85 μl 1×PBS in a UV-transparent half area plate. The absorbance at 253 nm and 261 nm were measured of each diluted sample.
# Adenosine concentration was determined using the A261/A253 ratio and the standard curve. Adenosine deaminase activity was measured by negative change in ADO concentration per min×100.
row,Molecule,Adenosine deaminase activity Δ [ADO]/min × (−100)
1,B1,31.84
2,B2,37.94
3,B3,27.34
4,B4,22.89

# Same assay, conditions: pH 6
row,Molecule,Adenosine deaminase activity Δ [ADO]/min × (−100)
1,B1,44.31
2,B2,52.70
3,B3,38.26
4,B4,33.51

# Same assay, conditions: pH 6.5
row,Molecule,Adenosine deaminase activity Δ [ADO]/min × (−100)
1,B1,50.23
2,B2,66.08
3,B3,45.58
4,B4,39.06

# Same assay, conditions: pH 6.75
row,Molecule,Adenosine deaminase activity Δ [ADO]/min × (−100)
1,B1,54.55
2,B2,67.95
3,B3,48.49
4,B4,41.58

# Same assay, conditions: pH 7
row,Molecule,Adenosine deaminase activity Δ [ADO]/min × (−100)
1,B1,59.68
2,B2,74.68
3,B3,51.90
4,B4,45.98

# Same assay, conditions: pH 7.25
row,Molecule,Adenosine deaminase activity Δ [ADO]/min × (−100)
1,B1,60.07
2,B2,77.81
3,B3,56.12
4,B4,42.69

# Same assay, conditions: pH 7.4
row,Molecule,Adenosine deaminase activity Δ [ADO]/min × (−100)
1,B1,57.15
2,B2,67.77
3,B3,50.44
4,B4,43.37

# Same assay, conditions: pH 7.75
row,Molecule,Adenosine deaminase activity Δ [ADO]/min × (−100)
1,B1,28.28
2,B2,35.97
3,B3,24.42
4,B4,22.29

# Same assay, conditions: pH 8
row,Molecule,Adenosine deaminase activity Δ [ADO]/min × (−100)
1,B1,1.77
2,B2,2.04
3,B3,4.63
4,B4,4.36
